# Biological target: T1, HLA-A*02:01 (peptide-receptive MHC class I monomer after UV cleavage of the UV-sensitive ligand) (human)
# T1 construct: MHC monomers loaded by UV-ligand exchange and captured on streptavidin plates
# Assay: UV ligand-exchange ELISA; exchange yield grade (+ >=10%, ++ >=20%, +++ >=50%, ++++ >=75%)
# Description: Candidate peptides for T cell based therapies according to the present invention were further tested for their MHC binding capacity (affinity). The individual peptide-MHC complexes were produced by UV-ligand exchange, where a UV-sensitive peptide is cleaved upon UV-irradiation, and exchanged with the peptide of interest as analyzed. Only peptide candidates that can effectively bind and stabilize the peptide-receptive MHC molecules prevent dissociation of the MHC complexes. To determine the yield of the exchange reaction, an ELISA was performed based on the detection of the light chain (β2m) of stabilized MHC complexes. The assay was performed as generally described in Rodenko et al. (Rodenko et al., 2006).
# 96 well MAXISorp plates (NUNC) were coated over night with 2 ug/ml streptavidin in PBS at room temperature, washed 4× and blocked for 1 h at 37° C. in 2% BSA containing blocking buffer. Refolded HLA-A*02:01/MLA-001 monomers served as standards, covering the range of 15-500 ng/ml. Peptide-MHC monomers of the UV-exchange reaction were diluted 100 fold in blocking buffer. Samples were incubated for 1 h at 37° C., washed four times, incubated with 2 ug/ml HRP conjugated anti-β2m for 1 h at 37° C., washed again and detected with TMB solution that is stopped with […]. Absorption was measured at 450 nm. Candidate peptides that show a high exchange yield (preferably higher than 50%, most preferred higher than 75%) are generally preferred for a generation and production of antibodies or fragments thereof, and/or T cell receptors or fragments thereof, as they show sufficient avidity to the MHC molecules and prevent dissociation of the MHC complexes.
row,Binder,peptide exchange yield [%]
1,FLFEDFVEV [FLFEDFVEV (SEQ ID NO: 140)],50 to 75
2,ALGRLGILSV [ALGRLGILSV (SEQ ID NO: 134)],50 to 75
3,YLAPENGYLM [YLAPENGYLM (SEQ ID NO: 108)],50 to 75
4,SLFAAISGMIL [SLFAAISGMIL (SEQ ID NO: 102)],50 to 75
5,LLIDIIHFL [LLIDIIHFL (SEQ ID NO: 115)],≥ 75
6,KLMNIQQQL [KLMNIQQQL (SEQ ID NO: 154)],50 to 75
7,FVAPPTAAV [FVAPPTAAV (SEQ ID NO: 125)],50 to 75
8,HLVPASWKL [HLVPASWKL (SEQ ID NO: 13)],50 to 75
9,SLLDNLLTI [SLLDNLLTI (SEQ ID NO: 116)],50 to 75
10,ALEELTGFREL [ALEELTGFREL (SEQ ID NO: 133)],20 to 50
11,LLSDPTPGA [LLSDPTPGA (SEQ ID NO: 14)],20 to 50
12,VLIEETDQL [VLIEETDQL (SEQ ID NO: 131)],20 to 50
13,GLDTVVALL [GLDTVVALL (SEQ ID NO: 11)],50 to 75
14,GLLQQPPAL [GLLQQPPAL (SEQ ID NO: 146)],50 to 75
15,ILVKQSPML [ILVKQSPML (SEQ ID NO: 151)],50 to 75
16,GLSEYQRNFL [GLSEYQRNFL (SEQ ID NO: 147)],50 to 75
17,YLFQFSAAL [YLFQFSAAL (SEQ ID NO: 109)],50 to 75
18,LLSGQLPTI [LLSGQLPTI (SEQ ID NO: 1)],50 to 75
19,ILSEKEYKL [ILSEKEYKL (SEQ ID NO: 150)],50 to 75
20,YQYPFVLGL [YQYPFVLGL (SEQ ID NO: 110)],≥ 75

row,Binder,peptide exchange yield [%]
1,IIIEDLLEA [IIIEDLLEA (SEQ ID NO: 15)],≥ 75
2,NLINNIFEL [NLINNIFEL (SEQ ID NO: 138)],≥ 75
3,ALLSAFVQL [ALLSAFVQL (SEQ ID NO: 123)],50 to 75
4,VIFSYVLGV [VIFSYVLGV (SEQ ID NO: 130)],50 to 75
5,GLITQVDKL [GLITQVDKL (SEQ ID NO: 144)],50 to 75
6,TLHAVDVTL [TLHAVDVTL (SEQ ID NO: 143)],50 to 75
7,VLQDQVDEL [VLQDQVDEL (SEQ ID NO: 132)],20 to 50
8,VQAVSIPEV [VQAVSIPEV (SEQ ID NO: 107)],50 to 75
9,VLATILAQL [VLATILAQL (SEQ ID NO: 117)],≥ 75
10,ALTGLQFQL [ALTGLQFQL (SEQ ID NO: 135)],50 to 75
11,VLYELLQYI [VLYELLQYI (SEQ ID NO: 106)],≥ 75
12,FLLVGTQIDL [FLLVGTQIDL (SEQ ID NO: 10)],50 to 75
13,LLPPPSPAA [LLPPPSPAA (SEQ ID NO: 160)],50 to 75
14,FLASPLVAI [FLASPLVAI (SEQ ID NO: 139)],≥ 75
15,GLSDISPST [GLSDISPST (SEQ ID NO: 114)],20 to 50
16,SLQDHLEKV [SLQDHLEKV (SEQ ID NO: 103)],50 to 75
17,ELCDIILRV [ELCDIILRV (SEQ ID NO: 119)],50 to 75
18,YLTGYNFTL [YLTGYNFTL (SEQ ID NO: 121)],50 to 75
19,KVQDVLHQV [KVQDVLHQV (SEQ ID NO: 158)],50 to 75
20,ILNPVTTKL [ILNPVTTKL (SEQ ID NO: 149)],50 to 75

# Continued, values first:
row,peptide exchange yield [%],Binder
1,50 to 75,FLGELTLQL [FLGELTLQL (SEQ ID NO: 141)]
2,50 to 75,VLLGTTWAL [VLLGTTWAL (SEQ ID NO: 120)]
3,50 to 75,YLLDTLLSL [YLLDTLLSL (SEQ ID NO: 111)]
4,50 to 75,FIFGIVHLL [FIFGIVHLL (SEQ ID NO: 136)]
5,50 to 75,KVLEFLAKV [KVLEFLAKV (SEQ ID NO: 157)]
6,20 to 50,AISEAQESV [AISEAQESV (SEQ ID NO: 122)]
7,50 to 75,FLGVVVPTV [FLGVVVPTV (SEQ ID NO: 124)]
8,50 to 75,ICAGHVPGV [ICAGHVPGV (SEQ ID NO: 148)]
9,≥ 75,SLDQSTWNV [SLDQSTWNV (SEQ ID NO: 101)]
10,50 to 75,KLMTSLVKV [KLMTSLVKV (SEQ ID NO: 155)]
11,50 to 75,SLFEASQQL [SLFEASQQL (SEQ ID NO: 129)]
12,50 to 75,FLYEDSKSVRL [FLYEDSKSVRL (SEQ ID NO: 142)]
13,50 to 75,VLDGMIYAI [VLDGMIYAI (SEQ ID NO: 118)]
14,50 to 75,FVIDSFEEL [FVIDSFEEL (SEQ ID NO: 113)]
15,50 to 75,GLLHEVVSL [GLLHEVVSL (SEQ ID NO: 145)]
16,50 to 75,GLLLLVPLL [GLLLLVPLL (SEQ ID NO: 12)]
17,20 to 50,KIMYTLVSV [KIMYTLVSV (SEQ ID NO: 152)]
18,50 to 75,KLLKGIYAI [KLLKGIYAI (SEQ ID NO: 153)]
19,50 to 75,FIQQERFFL [FIQQERFFL (SEQ ID NO: 137)]
20,50 to 75,KLFDASPTFFA [KLFDASPTFFA (SEQ ID NO: 128)]
21,50 to 75,FLAILPEEV [FLAILPEEV (SEQ ID NO: 112)]
22,50 to 75,VLLGLPLLV [VLLGLPLLV (SEQ ID NO: 104)]
23,50 to 75,KMLEDDLKL [KMLEDDLKL (SEQ ID NO: 156)]
24,50 to 75,VLTPVILQV [VLTPVILQV (SEQ ID NO: 105)]
25,50 to 75,LLLSDSGFYL [LLLSDSGFYL (SEQ ID NO: 159)]
26,50 to 75,HLMEENMIVYV [HLMEENMIVYV (SEQ ID NO: 127)]
